Consider 1 molecule from paper PMC2596486 (PLoS ONE, 2008).

The target of test [1] is T1, rHA subtype H1 (A/New Caledonia/20/99) (Influenza A virus A/New …, UniProt Q6WG00, strain).
T1 construct: source: bought: Protein Sciences Corp. (baculovirus vectors in insect cells)
Description: ELISA. The conditions noted are these: both partners purified.

Test [2] has as its target T2, rHA subtype H7 (A/Netherlands/219/03) (Influenza A virus …, UniProt Q6VMK1).
T2 construct: source: bought: Protein Sciences Corp. (baculovirus vectors in insect cells)
Put plainly: ELISA. The note with it: both partners purified.

B1: CR6323 human IgG1 (antibody, V domains shown)
VH: EVQLVESGAEVKKPGSSVKVSCKASGGTFSSYGISWVRQAPGQGLEWMGDIIGMFGSTNYAQNFQGRLTITADESTSTAYMELSSLRSEDTAVYYCARSSGYYPAYLPHWGQGTLVTVSS
VL: not shown
Regarding B1, the binding result in test [1] is on record as “binds”; in test [2], “no binding (tested: 5 µg/ml IgG1)”.
